Results from patent publication US20250218531A1 (ABSCI, published 2025).

Each binder was assayed against human epidermal growth factor receptor 2 (HER2) extracellular domain (human, UniProt P04626 23-629) (assay: SPR, Fab format).

Binder	Kd	log(KD (M))
De novo trastuzumab HCDR3 variant ARLYYSSFNGM (SEQ ID NO: 485) (Fab, V domains shown) VH: EVQLVESGGGLVQPGGSLRLSCAASGFNIKDTYIHWVRQAPGKGLEWVARIYPTNGYTRYADSVKGRFTISADTSKNTAYLQMNSLRAEDTAVYYCARLYYSSFNGMWGQGTLVTVSS VL: not shown	339 nM	-6.47 log M
De novo trastuzumab HCDR3 variant TRRDFGYYMAY (SEQ ID NO: 494) (Fab, V domains shown) VH: EVQLVESGGGLVQPGGSLRLSCAASGFNIKDTYIHWVRQAPGKGLEWVARIYPTNGYTRYADSVKGRFTISADTSKNTAYLQMNSLRAEDTAVYYCTRRDFGYYMAYWGQGTLVTVSS VL: not shown	547 nM	-6.26 log M
De novo trastuzumab HCDR3 variant AVEGGTRALEP (SEQ ID NO: 483) (Fab, V domains shown) VH: EVQLVESGGGLVQPGGSLRLSCAASGFNIKDTYIHWVRQAPGKGLEWVARIYPTNGYTRYADSVKGRFTISADTSKNTAYLQMNSLRAEDTAVYYCAVEGGTRALEPWGQGTLVTVSS VL: not shown	326 nM	-6.49 log M
De novo trastuzumab HCDR3 variant ARYYGWYYYFDY (SEQ ID NO: 482) (Fab, V domains shown) VH: EVQLVESGGGLVQPGGSLRLSCAASGFNIKDTYIHWVRQAPGKGLEWVARIYPTNGYTRYADSVKGRFTISADTSKNTAYLQMNSLRAEDTAVYYCARYYGWYYYFDYWGQGTLVTVSS VL: not shown	323 nM	-6.49 log M
De novo trastuzumab HCDR3 variant ARYLSDSYAWDY (SEQ ID NO: 490) (Fab, V domains shown) VH: EVQLVESGGGLVQPGGSLRLSCAASGFNIKDTYIHWVRQAPGKGLEWVARIYPTNGYTRYADSVKGRFTISADTSKNTAYLQMNSLRAEDTAVYYCARYLSDSYAWDYWGQGTLVTVSS VL: not shown	434 nM	-6.36 log M
De novo trastuzumab HCDR3 variant ARGYGVGASFVY (SEQ ID NO: 496) (Fab, V domains shown) VH: EVQLVESGGGLVQPGGSLRLSCAASGFNIKDTYIHWVRQAPGKGLEWVARIYPTNGYTRYADSVKGRFTISADTSKNTAYLQMNSLRAEDTAVYYCARGYGVGASFVYWGQGTLVTVSS VL: not shown	630 nM	-6.2 log M
De novo trastuzumab HCDR3 variant ASDRYGSYSLVS (SEQ ID NO: 480) (Fab, V domains shown) VH: EVQLVESGGGLVQPGGSLRLSCAASGFNIKDTYIHWVRQAPGKGLEWVARIYPTNGYTRYADSVKGRFTISADTSKNTAYLQMNSLRAEDTAVYYCASDRYGSYSLVSWGQGTLVTVSS VL: not shown	314 nM	-6.5 log M
De novo trastuzumab HCDR3 variant ARYHYSGFFMDA (SEQ ID NO: 489) (Fab, V domains shown) VH: EVQLVESGGGLVQPGGSLRLSCAASGFNIKDTYIHWVRQAPGKGLEWVARIYPTNGYTRYADSVKGRFTISADTSKNTAYLQMNSLRAEDTAVYYCARYHYSGFFMDAWGQGTLVTVSS VL: not shown	433 nM	-6.36 log M
De novo trastuzumab HCDR3 variant ARTGWGYDNISGYEY (SEQ ID NO: 497) (Fab, V domains shown) VH: EVQLVESGGGLVQPGGSLRLSCAASGFNIKDTYIHWVRQAPGKGLEWVARIYPTNGYTRYADSVKGRFTISADTSKNTAYLQMNSLRAEDTAVYYCARTGWGYDNISGYEYWGQGTLVTVSS VL: not shown	1460 nM	-5.84 log M
De novo trastuzumab HCDR3 variant ARYAGVERPGSFAY (SEQ ID NO: 43) (Fab, V domains shown) VH: EVQLVESGGGLVQPGGSLRLSCAASGFNIKDTYIHWVRQAPGKGLEWVARIYPTNGYTRYADSVKGRFTISADTSKNTAYLQMNSLRAEDTAVYYCARYAGVERPGSFAYWGQGTLVTVSS VL: not shown	574 nM	-6.24 log M
De novo trastuzumab HCDR3 variant ATGLSPSGSNGPY (SEQ ID NO: 491) (Fab, V domains shown) VH: EVQLVESGGGLVQPGGSLRLSCAASGFNIKDTYIHWVRQAPGKGLEWVARIYPTNGYTRYADSVKGRFTISADTSKNTAYLQMNSLRAEDTAVYYCATGLSPSGSNGPYWGQGTLVTVSS VL: not shown	444 nM	-6.35 log M
De novo trastuzumab HCDR3 variant ATSGTASWQHYGV (SEQ ID NO: 481) (Fab, V domains shown) VH: EVQLVESGGGLVQPGGSLRLSCAASGFNIKDTYIHWVRQAPGKGLEWVARIYPTNGYTRYADSVKGRFTISADTSKNTAYLQMNSLRAEDTAVYYCATSGTASWQHYGVWGQGTLVTVSS VL: not shown	322 nM	-6.49 log M
De novo trastuzumab HCDR3 variant AYMGSHTIYSFEH (SEQ ID NO: 479) (Fab, V domains shown) VH: EVQLVESGGGLVQPGGSLRLSCAASGFNIKDTYIHWVRQAPGKGLEWVARIYPTNGYTRYADSVKGRFTISADTSKNTAYLQMNSLRAEDTAVYYCAYMGSHTIYSFEHWGQGTLVTVSS VL: not shown	301 nM	-6.52 log M
De novo trastuzumab HCDR3 variant VRSGYDYYSWFAY (SEQ ID NO: 492) (Fab, V domains shown) VH: EVQLVESGGGLVQPGGSLRLSCAASGFNIKDTYIHWVRQAPGKGLEWVARIYPTNGYTRYADSVKGRFTISADTSKNTAYLQMNSLRAEDTAVYYCVRSGYDYYSWFAYWGQGTLVTVSS VL: not shown	465 nM	-6.33 log M
De novo trastuzumab HCDR3 variant AWASGYGGYGMDY (SEQ ID NO: 488) (Fab, V domains shown) VH: EVQLVESGGGLVQPGGSLRLSCAASGFNIKDTYIHWVRQAPGKGLEWVARIYPTNGYTRYADSVKGRFTISADTSKNTAYLQMNSLRAEDTAVYYCAWASGYGGYGMDYWGQGTLVTVSS VL: not shown	368 nM	-6.43 log M

These binders were tested against T1, human epidermal growth factor receptor 2 (HER2) extracellular domain (human, UniProt P04626 23-629) (assay: SPR).

Binder	Kd
AI Design 1 (multi-step AI designed trastuzumab HCDR1/2/3 variant) (Fab, V domains shown, Fab format; also called GFNVSSSY / IYPENGST / SRYSYYGGYAFDY) VH: EVQLVESGGGLVQPGGSLRLSCAASGFNVSSSYIHWVRQAPGKGLEWVARIYPENGSTRYADSVKGRFTISADTSKNTAYLQMNSLRAEDTAVYYCSRYSYYGGYAFDYWGQGTLVTVSS VL: not shown	225 nM
AI Design 7 (multi-step AI designed trastuzumab variant, native HCDR1) (Fab, V domains shown, Fab format; also called GFNIKDTY / IDPANGYT / ARVGGRGYYYYDY) VH: EVQLVESGGGLVQPGGSLRLSCAASGFNIKDTYIHWVRQAPGKGLEWVARIDPANGYTRYADSVKGRFTISADTSKNTAYLQMNSLRAEDTAVYYCARVGGRGYYYYDYWGQGTLVTVSS VL: not shown	134 nM
AI Design 8 (multi-step AI designed trastuzumab variant, native HCDR1) (Fab, V domains shown, Fab format; also called GFNIKDTY / IYPSNGYT / ARYGGSYAYYFYY) VH: EVQLVESGGGLVQPGGSLRLSCAASGFNIKDTYIHWVRQAPGKGLEWVARIYPSNGYTRYADSVKGRFTISADTSKNTAYLQMNSLRAEDTAVYYCARYGGSYAYYFYYWGQGTLVTVSS VL: not shown	18.6 nM
AI Design 3 (multi-step AI designed trastuzumab HCDR1/2/3 variant) (Fab, V domains shown, Fab format; also called GFNIKDYY / IYPSRGYT / ARHGSEGRYTMDV) VH: EVQLVESGGGLVQPGGSLRLSCAASGFNIKDYYIHWVRQAPGKGLEWVARIYPSRGYTRYADSVKGRFTISADTSKNTAYLQMNSLRAEDTAVYYCARHGSEGRYTMDVWGQGTLVTVSS VL: not shown	192 nM
AI Design 4 (multi-step AI designed trastuzumab HCDR1/2/3 variant) (Fab, V domains shown, Fab format; also called GFNIKDTW / IDPANGYT / ARVGGRGYYYYDY) VH: EVQLVESGGGLVQPGGSLRLSCAASGFNIKDTWIHWVRQAPGKGLEWVARIDPANGYTRYADSVKGRFTISADTSKNTAYLQMNSLRAEDTAVYYCARVGGRGYYYYDYWGQGTLVTVSS VL: not shown	394 nM
AI Design 9 (multi-step AI designed trastuzumab variant, native HCDR1 and HCDR2) (Fab, V domains shown, Fab format; also called GFNIKDTY / IYPTNGYT / ARYYGSSSYYFAY) VH: EVQLVESGGGLVQPGGSLRLSCAASGFNIKDTYIHWVRQAPGKGLEWVARIYPTNGYTRYADSVKGRFTISADTSKNTAYLQMNSLRAEDTAVYYCARYYGSSSYYFAYWGQGTLVTVSS VL: not shown	60.6 nM
AI Design 2 (multi-step AI designed trastuzumab HCDR1/2/3 variant) (Fab, V domains shown, Fab format; also called GFNISDYY / IYPSSGYT / ARDGGVGSYSMDV) VH: EVQLVESGGGLVQPGGSLRLSCAASGFNISDYYIHWVRQAPGKGLEWVARIYPSSGYTRYADSVKGRFTISADTSKNTAYLQMNSLRAEDTAVYYCARDGGVGSYSMDVWGQGTLVTVSS VL: not shown	1320 nM
AI Design 6 (multi-step AI designed trastuzumab variant, native HCDR1) (Fab, V domains shown, Fab format; also called GFNIKDTY / IDPADGYT / AREGGYGYYAMDY) VH: EVQLVESGGGLVQPGGSLRLSCAASGFNIKDTYIHWVRQAPGKGLEWVARIDPADGYTRYADSVKGRFTISADTSKNTAYLQMNSLRAEDTAVYYCAREGGYGYYAMDYWGQGTLVTVSS VL: not shown	160 nM
AI Design 5 (multi-step AI designed trastuzumab HCDR1/2/3 variant) (Fab, V domains shown, Fab format; also called GFNFKDTY / IYPANGYT / ASDGGSYSYAFDY) VH: EVQLVESGGGLVQPGGSLRLSCAASGFNFKDTYIHWVRQAPGKGLEWVARIYPANGYTRYADSVKGRFTISADTSKNTAYLQMNSLRAEDTAVYYCASDGGSYSYAFDYWGQGTLVTVSS VL: not shown	642 nM

Each binder was assayed against T1, human epidermal growth factor receptor … (assay: SPR, table row 2).

Binder	Kd	koff	kon
Trast_Her2_12 (Fab, V domains shown, also called HCDR3 AGHWTYRFADTL) VH: EVQLVESGGGLVQPGGSLRLSCAASGFNIKDTYIHWVRQAPGKGLEWVARIYPTNGYTRYADSVKGRFTISADTSKNTAYLQMNSLRAEDTAVYYCAGHWTYRFADTLWGQGTLVTVSS VL: not shown	≤ 0.792 nM	≤ 1e-05 s⁻¹	12600 M⁻¹ s⁻¹

What follows are binders tested against T1, human epidermal growth factor receptor … (assay: SPR (Carterra LSA), Fab captured, HER2 ECD as analyte).

Binder	log10(KD)
De novo trastuzumab HCDR3 variant ANDIYIQGYDLNR (Fab, V domains shown, Fab format) VH: EVQLVESGGGLVQPGGSLRLSCAASGFNIKDTYIHWVRQAPGKGLEWVARIYPTNGYTRYADSVKGRFTISADTSKNTAYLQMNSLRAEDTAVYYCANDIYIQGYDLNRWGQGTLVTVSS VL: not shown	-8.4 log10(M)
De novo trastuzumab HCDR3 variant ARYDYGYYIYVS (Fab, V domains shown, Fab format) VH: EVQLVESGGGLVQPGGSLRLSCAASGFNIKDTYIHWVRQAPGKGLEWVARIYPTNGYTRYADSVKGRFTISADTSKNTAYLQMNSLRAEDTAVYYCARYDYGYYIYVSWGQGTLVTVSS VL: not shown	-8.02 log10(M)
De novo trastuzumab HCDR3 variant ARYYYGFYYFDY (Fab, V domains shown, Fab format) VH: EVQLVESGGGLVQPGGSLRLSCAASGFNIKDTYIHWVRQAPGKGLEWVARIYPTNGYTRYADSVKGRFTISADTSKNTAYLQMNSLRAEDTAVYYCARYYYGFYYFDYWGQGTLVTVSS VL: not shown	-8.92 log10(M)
De novo trastuzumab HCDR3 variant ARYAGVERPGSFAY (Fab, V domains shown, Fab format) VH: EVQLVESGGGLVQPGGSLRLSCAASGFNIKDTYIHWVRQAPGKGLEWVARIYPTNGYTRYADSVKGRFTISADTSKNTAYLQMNSLRAEDTAVYYCARYAGVERPGSFAYWGQGTLVTVSS VL: not shown	-6.24 log10(M)
De novo trastuzumab HCDR3 variant TRYFFNGWYYFDV (Fab, V domains shown, Fab format) VH: EVQLVESGGGLVQPGGSLRLSCAASGFNIKDTYIHWVRQAPGKGLEWVARIYPTNGYTRYADSVKGRFTISADTSKNTAYLQMNSLRAEDTAVYYCTRYFFNGWYYFDVWGQGTLVTVSS VL: not shown	-9.03 log10(M)

What follows are binders tested against T1, human epidermal growth factor receptor … (assay: SPR, table row 1).

Binder	Kd	koff	kon
Trast_Her2_49 (Fab, V domains shown, also called HCDR3 AKGTSSWYNFGV) VH: EVQLVESGGGLVQPGGSLRLSCAASGFNIKDTYIHWVRQAPGKGLEWVARIYPTNGYTRYADSVKGRFTISADTSKNTAYLQMNSLRAEDTAVYYCAKGTSSWYNFGVWGQGTLVTVSS VL: not shown	≤ 0.517 nM	≤ 1e-05 s⁻¹	19300 M⁻¹ s⁻¹
